The results in this text go back to PMC12412652.

The target in test [1] is MBP-BAX 1-166 C62S C126S, biotinylated (Avi tag, 6-histidine tag) (human), Q07812. Put plainly: BLI; Octet RED96; biotinylated BCL-2 family proteins (25 nM) immobilised on streptavidin biosensors, designed protein in solution; 10 mM Hepes pH 7.4, 150 mM NaCl, 3 mM EDTA, 0.05% surfactant P20, 0.5% nonfat dry milk; titrations in triplicate, 1:1 binding model. A general note: Biolayer interferometry detects binding as a change in optical thickness at a sensor tip.

Test [2] concerns the target T1, MBP-BAK 16-186, biotinylated (Avi tag, 6-histidine tag) (human), Q16611.
T1 chain: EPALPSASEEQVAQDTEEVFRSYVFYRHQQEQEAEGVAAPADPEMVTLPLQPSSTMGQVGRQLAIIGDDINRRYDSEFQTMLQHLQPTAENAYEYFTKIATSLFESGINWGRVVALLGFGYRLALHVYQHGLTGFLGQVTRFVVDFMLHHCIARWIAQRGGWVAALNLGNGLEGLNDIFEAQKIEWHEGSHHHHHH
The test is described as above.

MBP-BAX 1-166 C62S C126S, biotinylated (Avi tag, 6-histidine tag) (human), Q07812, sequence (Q07812 1-166 C62S/C126S): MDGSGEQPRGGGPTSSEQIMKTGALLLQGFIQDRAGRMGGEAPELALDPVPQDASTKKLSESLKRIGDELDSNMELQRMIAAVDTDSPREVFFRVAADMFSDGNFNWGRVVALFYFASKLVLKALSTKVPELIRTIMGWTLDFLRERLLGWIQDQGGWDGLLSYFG

Broadly, the Kd is the constant that tells how readily two partners part at equilibrium. A higher Kd goes with lower affinity. In the case of SESQEDIIRNIARHLAQVGDSMDRSIPPGLVNGL (domain or fragment, modifications not checked) [MBP-fused BH3 peptide from BID], the Kd in test [1] was 464 nM; in test [2], greater than 4000 nM.
